Experiment [1] has as its target T1, thermolysin-cleaved EBOV GP on Jurkat-GP cells (cleaved GP) (Zaire ebolavirus, Makona (GP1 core …, strain)).
T1 chain 1: not shown
T1 chain 2: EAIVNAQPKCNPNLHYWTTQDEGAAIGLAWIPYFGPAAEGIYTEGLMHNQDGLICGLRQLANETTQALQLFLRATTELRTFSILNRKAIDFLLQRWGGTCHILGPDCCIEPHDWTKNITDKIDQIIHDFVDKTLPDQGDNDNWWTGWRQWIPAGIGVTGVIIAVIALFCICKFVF

Experiment [2] deals with EBOV GP ectodomain residues 1-636 (GPec) (Zaire ebolavirus, strain  …, UniProt Q05320).

The values below come from publication PMC6908968 (Cell, 2019).

B1: 5.6.c2485 (antibody, V domains shown)
VH: QVTLKESGPVLVKPTETLTLTCTVSGFSLSTARMGVGWIRQPPGKALEWLAHIFSDDEKSYSTSLKSRLTISKDTSKSQVVLTMTNMDPVDTATYYCARIQSSEWIYYYYGMDVWGQGTTVTVSS
VL: DIQMTQSPSSVSASIGDTVTITCRASQDLSYWLAWYQQKPGKAPKLLIYAASSLQSGVPSRFSGSGSGTDFTLTISSLQPEDFATYYCQQAHSFPITFGQGTRLEIK
Regarding B1, the binding result in experiment [1] and in experiment [2] was “binds” each time.

B2: 5.6.c2481 (antibody, V domains shown)
VH: QLQLQESGPGLVKPSETLSLTCTVSGGSISSSTYYWGWIRQPPGKGLEWIGSIFYRGITYYNPSLKSRVTISVDTSKNQFSLKLSSVTAADTAVYYCARGGVIVLMVYAIVPPDVWGQGTTVTVSS
VL: QSALTQPASVSGSPGQSITISCTGSRSDVGGYNYVSWYQQHPGKAPKLMISDVSNRPSGVSNRFSGSKSGNTASLTISGLQAEDEADYYCSSYTSSSTVVFGGGTKLTVL
With B2, the binding result in experiment [1] and in experiment [2] was “binds” in each case.

B3: 15.0.c770 (antibody, V domains shown)
VH: QVHLVESGGGVVQPGRSLRLSCAVSGFTFSSCGMHWVRQAPGKGLEWVAVISYDGSDKYYADSVKGRFTISRDNSNNTLYLQMNSLSIEDTAVYYCAKDYYYGSGSDLYYYYYGMDVWGLGTTVTVSS
VL: EIVLTQSPGTLSLSPGDRATLSCRASQSVSSTYLAWYQQKPGQAPRLLIYGASSRATGIPDRFSGSGSGTDFTLTISRLEPEDFAVYYCQQYVTSPYSFGQGTKLEIK
Take B3: the binding result in experiment [1] and in experiment [2] was “binds” each time.

B4: 5.6.c3955 (antibody, V domains shown)
VH: EVQLVESGGGLVQPGGSLRLSCAASGFTFSTYSMNWLRQAPGKGLEWISFISIRSTTTYYADSVKGRFTISRDDAKNSLYLQMNSLRDEDTAVYYCARVYMRTFYFDNWGQGTLVTVSS
VL: QSALTQPASVSGSPGQSITISCTGTSSDVGDYNYVSWYQQHPGKAPKLLIFDVSNRPSGVSNRFSGSKSGNTASLTISGLQAEDEADYYCSSYASSRTSWVFGGGTKLTVL
Consider B4, for which, in experiment [2], the binding result is “binds”.

B5: 15.0.c775 (antibody, V domains shown)
VH: EEQLLESGGGLVQPGGSLRLSCAASGFTFSGYDMSWVRQAPGKGLEWVSLLSWSGDAKYYADSVKGRFTISRDNSKNTLYLQMNSLRAEDTAVYYCAGDSSGYNNERLYYTYYMDVWGKGTTVTVSS
VL: DIQMTQSPSSVSASVGDRVTITCRANQAISSWLAWYQQKPGKAPKLLISAASSLQSGVPPRFSGSGSGTDFTLTISSLQPEDFATYYCQQANSFPLTFGGGTKVEIK
Consider B5, for which the binding result in experiment [1] and in experiment [2] was “binds” in each case.

B6: 5.6.c2569 (antibody, V domains shown)
VH: QVQLQESGPGLVKPSGTLSLTCAVSGGSISSPNWWSWVRQSPEKGLEWIGEVFHSGSTNYNPSLKSRATISVDNSKNQFSLRLTSVTAADTAIYYCARDLGWLVHGYFDPWGQGILVTVSS
VL: EIVLTQSPGTLSLSPGERATLSCRAGQSVSSSYVAWYQQKPGQAPRLLIYDTSSRATGIPDRFSGSGSGTDFTLTISRLEPEDFAVYYCQQYGTSRTWTFGQGTRVEIK
In the case of B6, the binding result in experiment [1] and in experiment [2] was “binds” throughout.

B7: 5.6.c2526 (antibody, V domains shown)
VH: QVQLVESGGGVVQPGGSLRLACAASGFTFSNSGLHWIRQAPGKGLEWMTVISHDGNNKYYADSVKGRFTISRDNSENMLYLQMNSLRPEDTAVYYCARDRIRYSDWGVYYYYNGMDVWGQGTTVTVSS
VL: QSVLTQPPSVSAAPGQKVTISCSGSISNIGNHYVSWYKQLPGTAPKVLIYDNNKRPSGIPDRFSGSKSGTSATLGLTGLQTGDEADYFCGTWDSSLSVWVFGGGTKLTVL
As for B7, the binding result in experiment [1] and in experiment [2] was “binds” in each case.

B8: 5.6.c2609 (antibody, V domains shown)
VH: QVQLVESGGGVVQPGRSLRLSCAASGIAFSNYAMHWVRQAPGKGLEWVALISSDARDQYYADSVKGRFTISRDNSKSTLYLEMNSLTSEDTAIYYCASDTSSHYSSLLYNWFDSWGQGSLVTVSS
VL: DIQMTQSPSSLSASVGDRVTITCRAIQSISTFLNWYQHKPGKAPKVLIYGASNLQSGVPSRFSGSGSGTDFTLTISSLQPEDFATYYCQQSYNTPFTFGPGTKVDIK
Regarding B8, the binding result in experiment [1] and in experiment [2] was “binds” in each case.

B9: 15.0.c888 (antibody, V domains shown)
VH: QVQLVESGGGVVQPGRSLRLSCAASGFTFSSYGMHWVRQAPGKGLEWVAVISYDGSNEYHADSVKGRFTISRDNSKNTLYLQMNSLRPEDTAVYYCAKGARSSSSLDLYYYYYYMDVWGKGTTVTVSS
VL: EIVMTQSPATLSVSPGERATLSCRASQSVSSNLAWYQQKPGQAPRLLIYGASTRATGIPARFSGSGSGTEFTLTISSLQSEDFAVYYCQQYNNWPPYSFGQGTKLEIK
For the molecule B9, the binding result in experiment [1] and in experiment [2] was “binds” throughout.

B10: 5.6.c2460 (antibody, V domains shown)
VH: QLQLQESGPGLVKPSETLSLSCSVSGGSISSSDDHWGWIRQSPGKGLEWIGSVSYSGSVYYNPSLKSRVTISVDTSKTQFSLRLRSVTAADTAVYNCARHRSDQMLFYWFDPWGQGTLVTVSS
VL: ETLMTQSPATLSVTPGESATLSCRASQTISSSLAWFQQKPGQAPRLLIHGASTRATGIPARFSGSGSGTEFTFTISSLQSEDFAVYFCQQYHNWPPTFGQGTKVEIK
Consider B10, for which the binding result in experiment [1] and in experiment [2] was “binds” each time.

B11: 5.6.c2518 (antibody, V domains shown)
VH: EVQLVESGGGVVQPGGSLKLSCAASGFTFDDHAMHWVRQAPGKGPEWVSLISWDGANSYYANSVRGRFTVSRDNSKNSLFLQMNSLRTEDTALYYCARDLHNYAFWSGYPDYWGRGTLVTVSS
VL: DIQLTQFPSSLSASVGDRVVITCRASQSISSSLNWYQQKPGNAPQLLIYTVSSLYTGVPSRFSGSASGTDFTLTISSLRPEDFATYYCQQTHSVPYTFGQGTKLEIK
Take B11: the binding result in experiment [1] and in experiment [2] was “binds” throughout.

B12: 5.6.c2517 (antibody, V domains shown)
VH: QVQLQQWGAGLLKPSETLSLSCSVYPGSFSGYYWAWIRQPPGKGLEWIGEINHSGSTKYNPSLKSRVTISIDTSKNQLSLKMSSVTAADSAVYYCASLTRSSWFRAFDYWGQGTLVTVSS
VL: QSALTQPASVSGSPGQSITISCTGSSSDIGGYDYVSWYQQHPGKAPKLMIFDVSDRPSGVSNRFSGSKSGNTASLTISGLQPEDEADYYCSSYTSISSSYVFGTGTKVTVL
As for B12, the binding result in experiment [1] and in experiment [2] was “binds” each time.

B13: 5.6.c3242 (antibody, V domains shown)
VH: QVQLQESGPGLVKPSATLSLTCTVSGGSISSDHWSWIRQPPGKGLEWIGHVIYSGSTNYIPSLKSRVTISIDTSKNQFSLKLRSVTAADTAVYYCARGGGWYDNWFDPWGQGTLVTVSS
VL: QSALTQPASVSGSPGQSIIISCTGTSNDVGSYNLVSWYQQHPGKAPKLMIYEGNKRPSGVSNRFSGSKSGNAASLKISGLQSEDEAEYYCCSYAGSGTWVFGGGTKLTVL
B13: the binding result in experiment [2] is recorded as “binds”.

B14: 5.6.c2455 (antibody, V domains shown)
VH: QVQLVESGGGVVQPGRSLRLSCAASGFTFSSYAIHWVRQAPGKGLEWVAVISDDGNHKYYADSVKGRFTISRDNSKNTLFLQMNSLRPEDTAVYYCAKNRLVFGVIWFYDMDVWGQGTTVTVSS
VL: QSVLTQPPSVSAAPGQKVTISCSGSSSNIGNNYVSWYQQLPGSAPKLLIYDNNKRPSGIPDRFSGSKSGTSATLDITGLQTGDEADYYCGTWDTSLRGVFGGGTKLTVL
Turning to B14, the binding result in experiment [1] and in experiment [2] was “binds” throughout.
